The values that follow come from article PMC11579514, “Validation of NBD-coupled taurocholic acid for intravital analysis of bile acid transport in liver and kidney of mice” (EXCLI Journal, 2024).

Substrate in series [1]: C[C@H](CCC(=O)NCCS(=O)(=O)O)[C@H]1CC[C@H]2[C@@H]3[C@H](O)C[C@@H]4C[C@@H](Nc5ccc([N+](=O)[O-])c6nonc56)CC[C@]4(C)[C@H]3C[C@H](O)[C@]12C
The experiment in a line: sodium-dependent fluorescent uptake kinetics (Km) in mNtcp-HEK cells. The class given is cell-based, Mus musculus. As to conditions: Na+.

Substrate in series [2]: C[C@H](CCC(=O)NCCS(=O)(=O)O)[C@H]1CC[C@H]2[C@@H]3[C@H](O)C[C@@H]4C[C@@H](Nc5ccc([N+](=O)[O-])c6nonc56)CC[C@]4(C)[C@H]3C[C@H](O)[C@]12C
The experiment in a line: sodium-dependent fluorescent uptake kinetics (Km) in mAsbt-HEK cells. The class given is cell-based, Mus musculus. The conditions noted are these: Na+.

B1: mNtcp (mouse Na+/taurocholate co-transporting polypeptide) (Mus musculus) (protein)
chain: MEAHNVSAPFNFSLPPGFGHRATDTALSVILVVMLLLIMLSLGCTMEFSKIKAHFWKPKGVIIAIVAQYGIMPLSAFLLGKVFHLTSIEALAILICGCSPGGNLSNLFTLAMKGDMNLSIVMTTCSSFTALGMMPLLLYIYSKGIYDGDLKDKVPYKGIMLSLVMVLIPCAIGIFLKSKRPHYVPYVLKAGMIITFSLSVAVTVLSVINVGNSIMFVMTPHLLATSSLMPFTGFLMGYILSALFRLNPSCRRTISMETGFQNVQLCSTILNVTFPPEVIGPLFFFPLLYMIFQLAEGLLFIIIFRCYLKIKPQKDQTKITYKAAATEDATPAALEKGTHNGNNPPTQPGLSPNGLNSGQMAN
notes: full open reading frame with C-terminal FLAG, stably expressed in HEK293
In general, Km refers to the substrate concentration at which the rate is half of its maximum. Regarding B1, in series [1], the Km worked out at 23.3 µM.

B2: mAsbt (mouse apical sodium-dependent bile acid transporter) (Mus musculus) (protein)
chain: MDNSSVCPPNATVCEGDSCVVPESNFNAILNTVMSTVLTILLAMVMFSMGCNVEVHKFLGHIKRPWGIFVGFLCQFGIMPLTGFILSVASGILPVQAVVVLIMGCCPGGTGSNILAYWIDGDMDLSVSMTTCSTLLALGMMPLCLFVYTKMWVDSGTIVIPYDSIGISLVALVIPVSFGMFVNHKWPQKAKIILKIGSITGVILIVLIAVIGGILYQSAWIIEPKLWIIGTIFPIAGYSLGFFLARLAGQPWYRCRTVALETGMQNTQLCSTIVQLSFSPEDLNLVFTFPLIYTVFQLVFAAVILGIYVTYRKCYGKNDAEFLEKTDNEMDSRPSFDETNKGFQPDEK
notes: as for B1
For B2, the Km in series [2] was determined as 19.1 µM.
